Data taken from paper PMC8461307, “FHR-5 Serum Levels and CFHR5 Genetic Variations in Patients With Immune Complex-Mediated Membranoproliferative Glomerulonephritis and C3-Glomerulopathy” (Frontiers in Immunology, 2021).
Substitutions are numbered along the chain they refer to. In names and notes the source's numbering stands.

B1: recombinant FHR-5 G278S (natural protein, human, UniProt Q9BXR6 19-569, looked up)
chain: EGTLCDFPKIHHGFLYDEEDYNPFSQVPTGEVFYYSCEYNFVSPSKSFWTRITCTEEGWSPTPKCLRMCSFPFVKNGHSESSGLIHLEGDTVQIICNTGYSLQNNEKNISCVERGWSTPPICSFTKGECHVPILEANVDAQPKKESYKVGDVLKFSCRKNLIRVGSDSVQCYQFGWSPNFPTCKGQVRSCGPPPQLSNGEVKEIRKEEYGHNEVVEYDCNPNFIINGPKKIQCVDGEWTTLPTCVEQVKTCGYIPELEYSYVQPSVPPYQHGVSVEVNCRNEYAMIGNNMITCINGIWTELPMCVATHQLKRCKIAGVNIKTLLKLSGKEFNHNSRIRYRCSDIFRYRHSVCINGKWNPEVDCTEKREQFCPPPPQIPNAQNMTTTVNYQDGEKVAVLCKENYLLPEAKEIVCKDGRWQSLPRCVESTAYCGPPPSINNGDTTSFPLSVYPPGSTVTYRCQSFYKLQGSVTVTCRNKQWSEPPRCLDPCVVSEENMNKNNIQLKWRNDGKLYAKTGDAVEFQCKFPHKAMISSPPFRAICQEGKFEYPICE
notes: complement Factor H-related protein 5 (FHR-5), human; amplified from the wtCFHR5 vector with a mutagenic primer; numbered from the ATG translation initiation site; Same construct as m1 with the patient variation G278S
B2: recombinant FHR-5 R356H (natural protein, human, UniProt Q9BXR6 19-569, looked up)
chain: B1 chain with S260G, R338H
notes: complement Factor H-related protein 5 (FHR-5), human; amplified from the wtCFHR5 vector with a mutagenic primer; histidine instead of arginine at position 356, a variation found in patients; numbered from the ATG translation initiation site; Same construct as m1 with the patient variation R356H
B3: recombinant wild-type Factor H-related protein 5 (FHR-5WT) (natural protein, human, UniProt Q9BXR6 19-569, looked up)
chain: B1 chain with S260G
notes: complement Factor H-related protein 5 (FHR-5), human; variations are numbered from the ATG translation initiation site; Secreted into the Sf9 supernatant; also called wild-type FHR-5; wtCFHR5

Target: T1, purified C3b (UniProt P01024 23-667; P01024 749-1663)
T1 construct: complement C3 beta chain, as in C3b; complement C3b alpha' chain (C3 alpha chain without C3a); also called C3b fragment; source: bought: Merck
T1 sequence (P01024 23-667, chain 1 of 2): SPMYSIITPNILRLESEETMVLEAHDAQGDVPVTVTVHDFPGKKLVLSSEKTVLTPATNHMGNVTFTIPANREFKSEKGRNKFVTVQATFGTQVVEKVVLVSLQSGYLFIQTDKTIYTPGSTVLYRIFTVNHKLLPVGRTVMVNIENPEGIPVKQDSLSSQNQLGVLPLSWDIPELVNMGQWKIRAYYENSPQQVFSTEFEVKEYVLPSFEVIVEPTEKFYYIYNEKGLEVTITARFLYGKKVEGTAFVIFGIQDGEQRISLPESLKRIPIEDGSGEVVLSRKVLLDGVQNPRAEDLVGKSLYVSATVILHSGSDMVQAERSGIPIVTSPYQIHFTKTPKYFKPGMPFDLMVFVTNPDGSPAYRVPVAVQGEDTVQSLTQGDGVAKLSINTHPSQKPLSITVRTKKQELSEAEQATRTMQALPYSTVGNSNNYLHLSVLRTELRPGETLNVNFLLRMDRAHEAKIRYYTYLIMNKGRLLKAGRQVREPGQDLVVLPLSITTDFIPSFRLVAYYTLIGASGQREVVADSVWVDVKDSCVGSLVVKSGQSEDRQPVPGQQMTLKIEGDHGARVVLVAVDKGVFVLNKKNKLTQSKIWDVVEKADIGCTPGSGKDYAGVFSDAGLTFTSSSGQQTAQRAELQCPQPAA
T1 sequence (P01024 749-1663, chain 2 of 2): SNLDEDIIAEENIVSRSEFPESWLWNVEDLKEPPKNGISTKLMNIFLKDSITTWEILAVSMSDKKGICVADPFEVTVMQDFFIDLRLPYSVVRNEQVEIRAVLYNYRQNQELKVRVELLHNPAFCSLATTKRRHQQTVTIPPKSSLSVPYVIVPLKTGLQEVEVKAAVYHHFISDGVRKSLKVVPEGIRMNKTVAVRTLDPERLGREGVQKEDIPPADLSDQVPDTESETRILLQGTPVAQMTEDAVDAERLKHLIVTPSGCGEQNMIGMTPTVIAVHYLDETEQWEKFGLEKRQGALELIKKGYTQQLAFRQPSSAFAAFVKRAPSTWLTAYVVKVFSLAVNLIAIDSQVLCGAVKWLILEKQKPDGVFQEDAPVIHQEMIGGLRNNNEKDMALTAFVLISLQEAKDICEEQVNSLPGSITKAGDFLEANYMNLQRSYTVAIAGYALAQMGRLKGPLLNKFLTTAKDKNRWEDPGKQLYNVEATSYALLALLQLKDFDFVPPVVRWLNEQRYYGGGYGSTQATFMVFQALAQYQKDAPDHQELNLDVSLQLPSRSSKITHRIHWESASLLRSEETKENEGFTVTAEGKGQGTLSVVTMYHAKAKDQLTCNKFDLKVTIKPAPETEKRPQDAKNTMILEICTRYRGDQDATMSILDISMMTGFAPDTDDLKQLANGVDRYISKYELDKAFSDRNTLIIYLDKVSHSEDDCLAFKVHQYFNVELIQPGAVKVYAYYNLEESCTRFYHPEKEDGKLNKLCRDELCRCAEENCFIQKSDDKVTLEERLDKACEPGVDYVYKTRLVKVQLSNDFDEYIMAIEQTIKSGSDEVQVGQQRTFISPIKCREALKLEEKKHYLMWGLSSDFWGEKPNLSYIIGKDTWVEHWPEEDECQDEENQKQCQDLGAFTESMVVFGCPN
Assay: SPR; ProteOn XPR36; recombinant FHR-5 variants amine-coupled on a GLC chip at 4,200-4,600 RU; C3b in serial dilutions as analyte in DPBS with 0.005% Tween-20, 50 µl/min; ovalbumin channel subtracted; bivalent analyte model, KD = kd/ka
Details: both partners purified

Binder | Kd [µM]
B1 | 20.5
B2 | 5.6
B3 | 5.26
